Measured values from US20200407442A1 (WUXI BIOLOGICS IRELAND, published 2020).

How the values were obtained:
Test in all cases: FACS, 1 ug/mL antibody, transfected 293F cells
[1] = target: T1, Variant 3: xPro1.FL-x3 (human; mouse)
T1 construct: Chimeric full-length LAG-3 on transfected 293F cells
T1 chain: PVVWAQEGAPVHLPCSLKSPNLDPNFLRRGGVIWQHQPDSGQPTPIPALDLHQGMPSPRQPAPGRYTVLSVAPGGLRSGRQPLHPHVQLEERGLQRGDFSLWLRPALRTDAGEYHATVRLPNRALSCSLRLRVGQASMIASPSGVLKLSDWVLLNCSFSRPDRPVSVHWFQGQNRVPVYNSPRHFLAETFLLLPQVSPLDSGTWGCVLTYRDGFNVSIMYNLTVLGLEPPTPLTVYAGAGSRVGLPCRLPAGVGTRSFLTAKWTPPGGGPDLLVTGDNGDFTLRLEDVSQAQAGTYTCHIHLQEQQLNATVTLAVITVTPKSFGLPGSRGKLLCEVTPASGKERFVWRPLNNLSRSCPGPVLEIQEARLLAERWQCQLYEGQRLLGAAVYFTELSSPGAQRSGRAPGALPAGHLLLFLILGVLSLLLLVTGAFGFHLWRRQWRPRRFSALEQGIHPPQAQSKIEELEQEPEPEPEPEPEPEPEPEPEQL
Protocol: (§1) The 10 variants were cloned into pcDNA3 vector and used for 293F cell transfection. Briefly, 293F cells were diluted to a density of 1×10⁶ cells/mL with FreeStyle 293F medium and aliquots of 3 mL/well were added to 24-well plate. Transfections were performed using 293fectin reagent (Life Technologies). For each transfection, 3 μg of DNA were diluted in 150 μOpti-MEM I-reduced serum medium (Life Technologies), and then combined with 6μL 293fectin reagent pre-diluted in 150 μL Opti-MEM I reduced serum medium. The DNA/[…] mixture was allowed to stand at 25° C. for 20 min before being added to the culture. The transfected cells were analyzed by flow cytometry at 48 h post-transfection.
(§2) Binding of antibodies to chimeric LAG-3 variants or full length human/mouse LAG-3 was analyzed by flow cytometry. Briefly, 1 μg/mL antibodies were incubated with chimeric LAG-3-expressing transfected 293F cells for 1 hour at 4° C., and then incubated with 3 μg/mL goat anti-human IgG Fc R-PE (Jackson) for 40 min at 4° C. Cells were analyzed with flow cytometer.

[2] = target: T2, Variant 1: xPro1.FL-x1 (human; mouse)
T2 construct: Chimeric full-length LAG-3 on transfected 293F cells
T2 chain: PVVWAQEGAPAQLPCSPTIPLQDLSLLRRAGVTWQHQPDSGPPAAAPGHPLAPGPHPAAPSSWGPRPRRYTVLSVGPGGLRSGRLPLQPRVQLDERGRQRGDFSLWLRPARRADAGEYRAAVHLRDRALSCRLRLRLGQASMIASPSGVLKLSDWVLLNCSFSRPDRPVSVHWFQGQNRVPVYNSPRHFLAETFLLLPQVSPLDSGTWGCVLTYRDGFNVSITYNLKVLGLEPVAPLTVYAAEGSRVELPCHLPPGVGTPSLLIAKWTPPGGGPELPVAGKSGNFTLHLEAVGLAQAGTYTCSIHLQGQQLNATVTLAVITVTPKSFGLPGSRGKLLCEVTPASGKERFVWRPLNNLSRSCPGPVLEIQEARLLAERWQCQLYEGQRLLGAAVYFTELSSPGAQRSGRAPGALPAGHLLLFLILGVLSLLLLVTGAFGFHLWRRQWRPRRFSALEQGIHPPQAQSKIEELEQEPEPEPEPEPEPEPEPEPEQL
Protocol: as §1, §2

[3] = target: T3, Variant 4: xPro1.FL-x4 (human; mouse)
T3 construct: Chimeric full-length LAG-3 on transfected 293F cells
T3 chain: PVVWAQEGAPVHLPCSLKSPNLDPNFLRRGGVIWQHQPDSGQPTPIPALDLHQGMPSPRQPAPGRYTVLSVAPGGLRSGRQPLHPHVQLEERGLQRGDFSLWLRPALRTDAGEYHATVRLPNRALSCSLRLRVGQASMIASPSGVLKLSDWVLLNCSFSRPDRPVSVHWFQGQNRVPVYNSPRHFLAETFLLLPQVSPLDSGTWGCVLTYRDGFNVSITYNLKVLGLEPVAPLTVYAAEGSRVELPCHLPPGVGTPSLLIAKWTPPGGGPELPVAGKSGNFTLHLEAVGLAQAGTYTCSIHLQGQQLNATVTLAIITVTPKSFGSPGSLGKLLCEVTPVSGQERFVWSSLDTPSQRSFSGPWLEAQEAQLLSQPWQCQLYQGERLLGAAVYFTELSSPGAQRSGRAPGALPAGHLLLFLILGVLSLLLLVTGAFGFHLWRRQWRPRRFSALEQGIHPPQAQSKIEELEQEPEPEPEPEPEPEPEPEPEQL
Protocol: as §1, §2

[4] = target: T4, full-length mouse LAG-3 on cells (mouse, UniProt Q61790 24-521)
T4 construct: also called mPro1.FL; murine LAG-3
T4 sequence: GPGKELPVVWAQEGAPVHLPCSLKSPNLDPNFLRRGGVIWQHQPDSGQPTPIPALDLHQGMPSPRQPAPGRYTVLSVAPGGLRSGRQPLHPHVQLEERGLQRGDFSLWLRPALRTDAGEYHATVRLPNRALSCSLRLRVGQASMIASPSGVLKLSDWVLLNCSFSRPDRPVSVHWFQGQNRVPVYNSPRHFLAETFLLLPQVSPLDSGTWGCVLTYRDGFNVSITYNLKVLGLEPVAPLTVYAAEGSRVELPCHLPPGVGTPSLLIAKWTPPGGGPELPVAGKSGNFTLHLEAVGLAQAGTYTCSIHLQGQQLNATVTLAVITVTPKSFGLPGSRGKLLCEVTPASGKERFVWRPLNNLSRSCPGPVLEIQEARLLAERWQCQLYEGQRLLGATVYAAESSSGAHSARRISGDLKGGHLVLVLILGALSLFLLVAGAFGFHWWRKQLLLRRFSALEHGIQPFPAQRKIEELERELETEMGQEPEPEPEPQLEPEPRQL
Protocol: as §1, §2

MFI [1]: 41.7 | PE+ % [1]: 2.03% | MFI [2]: 8580 | PE+ % [2]: 97% | MFI [3]: 41 | PE+ % [3]: 1.42% | MFI [4]: 43.9 | PE+ % [4]: 1.1%
B1: 1.53.3-uAb-IgG4k (antibody, V domains shown)
VH: QVQLQQWGAGLLKPSETLSLTCGVYGGSFSGYYWSWIRQPPGMGLEWIGEINHRGNTNYNPSLKSRVTISEDTSKNQFSLRLSSVTAADTAVYFCTRGEDYSDYDYYGDFWGQGTLVTVSS
VL: EIVLTQSPATLSLSQGERATLSCRASQSISSYLAWYQQKPGQAPRLLIYAASNRATGIPARFSGSGSGTDFTLTISSLEPEDFAIYYCQQRSNWPLTFGGGTKVEIK
notes: Fully human antibody from OMT rats; IgG4 kappa by its name
